The text below walks through data of patent publication US12466853B2, “Selective targeting of apoptosis proteins by structurally-stabilized and/or cysteine-reactive NOXA peptides” (priority 2017, dated 2025).

One data set deals with T1, His-BFL-1ΔC (Homo sapiens, UniProt Q16548).
T1 construct: Recombinant anti-apoptotic BFL-1ΔC (aa 1-151) and its cysteine to serine mutants were cloned into PET17b; made in house; host or cells: Escherichia coli LOBSTR BL21(DE3)
T1 sequence (Q16548 1-151): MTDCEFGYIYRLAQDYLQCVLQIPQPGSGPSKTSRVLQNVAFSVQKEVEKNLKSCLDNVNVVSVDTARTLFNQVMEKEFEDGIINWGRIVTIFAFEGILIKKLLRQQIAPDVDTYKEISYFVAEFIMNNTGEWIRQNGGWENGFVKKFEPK
Put plainly: Streptavidin pulldown from recombinant protein mixture, BFL-1. The class given is binding. As to conditions: equimolar mixture of recombinant MCL-1, BCL-XL, BFL-1 and biotinylated SAHB, silver stain; listed as D-NA-NOXA SAHB. The protocol:
(§1) WT His-BFL-1ΔC, BCL-XLΔC (tagless), and GST-MCL-1ΔNΔC (1 μM each) were combined and incubated with 3 mM DTT in PBS for thirty minutes at room temperature. Mixtures were treated with vehicle or the indicated C-terminally biotinylated NOXA SAHB (1 μM) for four hours and were then added to 30 μL PBS-washed high-capacity streptavidin (SA) agarose beads (Thermo Fisher Pierce) and incubated with rotation at room temperature for two hours. The beads were then washed three times with NP-40 lysis buffer (1% NP-40, 50 mM Tris pH 8, 100 mM NaCl, 2.5 mM MgCl2) and three times with PBS. To elute bound protein, beads were boiled for ten minutes with 10% SDS containing 10 mg/mL biotin. After elution, samples were boiled with 3×LDS and 2M DTT for twenty minutes. Gel electrophoresis using a 12% Bis-Tris gel was conducted on inputs (2%) and eluates (5 μL) and gels were developed using the Pierce silver staining kit (Thermo Fisher).

The target in another data set is T2, native BFL-1 (Homo sapiens, UniProt Q16548).
T2 construct: endogenous in cells; host or cells: A375P melanoma cells (A10); U937 AML cells (A12), lysates
T2 sequence (Q16548 1-175): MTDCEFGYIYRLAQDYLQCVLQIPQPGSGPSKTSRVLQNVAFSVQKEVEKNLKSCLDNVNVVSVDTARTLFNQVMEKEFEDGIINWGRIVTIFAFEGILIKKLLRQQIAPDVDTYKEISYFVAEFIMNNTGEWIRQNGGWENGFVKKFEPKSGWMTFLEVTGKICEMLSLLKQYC
Put plainly: BFL-1 targeting in A375P lysates (streptavidin pulldown, BFL-1 western). The class given is binding. Conditions: biotinylated SAHB, compared to acetylated construct. As for the experimental part:
Cultured A375P and U937 cells were trypsinized or harvested, respectively, washed with PBS, and lysed by incubating with 1% CHAPS lysis buffer (1% CHAPS, 150 mM NaCl, 50 mM Tris pH 7.4, 100 μM DTT). The protein concentrations of the soluble fraction were measured using a BCA kit according to the manufacturer's instructions (Thermo Scientific). Lysate samples (1 mg) were incubated with vehicle or C-terminally biotinylated NOXA SAHBs (30 μM) overnight in 1% CHAPS lysis buffer at 4° C. Biotin capture was accomplished by incubating the mixture with high-capacity SA agarose (Thermo Scientific) for 2 hours at 4° C., followed by centrifugation and washing the pelleted beads three times with lysis buffer (1 mL). Bead-bound proteins were eluted by boiling in 10% SDS containing 10 mg/mL biotin for 10 minutes and then subjected to electrophoresis and western blotting using BFL-1 (Abcam, #125259) and MCL-1 (Rockland #600-401-394S) antibodies.

A further data set deals with T3, His-BFL-1ΔC C4S/C19S (Homo sapiens, UniProt Q16548, C19S/C4S).
T3 construct: Recombinant anti-apoptotic BFL-1ΔC (aa 1-151) and its cysteine to serine mutants were cloned into PET17b; made in house; host or cells: Escherichia coli LOBSTR BL21(DE3)
T3 sequence (Q16548 1-151 C4S/C19S): T1 sequence (Q16548 1-151) with C4S, C19S
Put plainly: In vitro covalent conjugation assay (gel shift, Coomassie; intact mass spectrometry). The class given is binding. The source says: To generate constructs with particular binding selectivities, cell penetrance properties, in vivo stability, and biological activity to enable the development of a drug for clinical use, staple scanning methodology was first used to generate a library of cysteine-reactive NOXA SAHBs to optimize binding potency, selectivity, and cellular penetrance. […] Staple scanning was achieved by sequential placement of (i, i+4) and (i, i+7) staples across the length of the peptide template, while keeping the N-terminal D-nipecotic acid (D-NA) reactive group constant (FIG. 2). We measured the reactivity of this NOXA library by incubating each peptide with BFL-1ΔC and detecting a higher molecular weight conjugate upon reducing and denaturing gel electrophoresis, and Coomassie staining (FIG. 3). Those peptides capable of covalent reaction with BFL-1 were advanced to cellular testing for peptide uptake. 293T cells transfected with HA-BFL-1ΔC C4S/C19S were treated with peptide (20 μM, 6 hr), and then harvested and lysates analyzed by anti-HA western blotting (FIG. 4). […] However, upon LDH release testing in A375P cells, this peptide was unexpectedly found to cause membrane disruption (FIG. 5). […]

The subject of a further data set is A375P cells. Put plainly: LDH release assay, A375P cells. The class given is cell-based, human. Conditions: 30 min. As for the experimental part: After overnight incubation for A375P cells, or immediately upon plating for U937 cells, the cells were treated with the indicated concentrations of D-NA-NOXA SAHBs in DMEM or RPMI supplemented with 5% FBS for the indicated time period (30 min, 4 h). After plate centrifugation at 1,500 rpm (Thermo Scientific Sorvall Four-Place Swinging Bucket Rotor [75006445]; 478×g) for 5 min at 4° C., LDH release was quantified by transferring 100 μL of cell-culture medium to a clear plate (Corning), incubating with 100 μL of LDH reagent (Roche) for 30 min while shaking, and then measuring absorbance at 490 nm on a microplate reader (Spectramax M5, Molecular Devices).
For orientation: LDH in the medium is a marker of cell lysis.

The target of the next data set is T4, GST-MCL-1ΔNΔC (Homo sapiens, UniProt Q07820).
T4 construct: BCL-XLΔC (aa 1-212) and MCL-1ΔNΔC (aa 172-329) were cloned into the PGEX-4T-1; made in house; host or cells: Escherichia coli BL21(DE3)
T4 sequence (Q07820 172-329, stated change not applied): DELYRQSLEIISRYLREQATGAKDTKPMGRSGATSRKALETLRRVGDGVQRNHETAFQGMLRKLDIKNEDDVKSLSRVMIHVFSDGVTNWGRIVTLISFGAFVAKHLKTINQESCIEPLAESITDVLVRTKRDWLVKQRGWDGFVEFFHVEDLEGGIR
Put plainly: Streptavidin pulldown from recombinant protein mixture, MCL-1. As to conditions: equimolar mixture of recombinant MCL-1, BCL-XL, BFL-1 and biotinylated SAHB, silver stain. The class given is binding. The protocol: as §1

The test system of data set [1] is ATM S1981 and CHK2 S33/35 phosphorylation in U937 cells. Put plainly: Phospho-signaling analysis (western blot). Conditions: 2 hr. The class given is cell-based, human. The text has this: Cells were then washed with PBS, lysed in 1% CHAPS buffer, and the supernatant collected for protein concentration determination by BCA kit. Samples were subjected to electrophoresis and western analysis using 1:1000 dilutions of phospho-ATM (S1981, Cell Signaling, #4526), ATM (Abcam, #ab78), phospho-CHK2 (Ser33/35, Cell Signaling, #2665), CHK2 (Cell Signaling, #2662), and actin (Sigma #A1978) antibodies.
On the technique in general: In western blotting, separated proteins are transferred to a membrane and probed.

Data set [2] relates to BAX protein in U937 cells. The data set is described as follows: Dynamic assessment of BAX protein levels (western blot). Format: cell-based, human. As to conditions: 5 μM. The protocol:
U937 cells were plated in 6-well plates (2×10^6 cells per well), treated with AZD0156 (5 μM), and the cells harvested and lysed at the indicated time points. Cell lysates were then subjected to electrophoresis and western blotting with BAX (Santa Cruz sc-493) and actin (Sigma #A1978) antibodies.

Positions count from the first letter of the chain named. Entries after “also recorded” stand apart in the source; their conditions may differ. Positions of bridges follow the written chain, without caps; N, C: chain ends. Non-standard residues stand in square brackets, D forms with d. No end group written: not given here. R8 = C=CCCCCCC[C@@](C)(N)C(=O)O; S5 = C=CCCC[C@](C)(N)C(=O)O

Take “*AT8LRRFGDXLNFRQ (AT[R8]LRRFGD[S5]LNFRQ; staple 3-10 (inferred); not fully specified (N-terminus); printed as *AT8LRRFGDXLNFRQ; also: N-terminal cap * is Ac or D-nipecotic acid, not settled) [NOXA-15]”: the “BFL-1 binding / pull down” value in the data set with His-BFL-1ΔC is reported as “robust BFL-1 pull down; also recorded: substantial pull-down of BFL-1”. The “targeting of native BFL-1” value in the data set with native BFL-1 is “markedly enhanced BFL-1 pull down compared to Ac-NOXA SAHB”. In the data set with His-BFL-1ΔC C4S/C19S (BFL-1 constructs bearing C55 (wild-type and C4S/C19S) vs C55S, C4S/C19S/C55S), the “BFL-1 crosslinking (increase in molecular weight)” value is reported as “discrete increase in molecular weight”. The “conversion of BFL-1 C4S/C19S to peptide adduct” value with His-BFL-1ΔC C4S/C19S (intact mass spectrometry) is given as “complete conversion”. Besides, the “LDH release (lytic activity)” value in the data set on A375P cells was “non-specific cell lysis”. Also, the “MCL-1 binding / pull down” value in the data set with GST-MCL-1ΔNΔC is listed as “similarly small amount of MCL-1”.
As for `CN(C)CCCOc1ccc(-c2ccc3ncc4c(c3c2)n(C2CCOCC2)c(=O)n4C)cn1` [AZD0156], in data set [1], the “ATM auto-phosphorylation at S1981” value is recorded as “dose-responsive inhibition of S1981 auto-phosphorylation” and the “CHK2 phosphorylation at S33/35” value was “potent blockade of CHK2 phosphorylation even at the lowest treatment dose”. For the same compound, the “protein level of pro-apoptotic BAX” value in data set [2] is recorded as “time-dependent increase in the protein level of pro-apoptotic BAX”.
